± gives the standard deviation of the averaged measurements.
B1: library; a variant is named by its letters at N, in order (parent)
chain: GCUGUCACCGAGAAACUGUGAAGUAUAUCUUAAACCUGGGCACUUAAAAGAUAUAUGGAGUUAGUAGUGCAACCUGCUCGGUCUGAUGAGUCCNNNNNNGGACGAAACAGC

Legend:
cyclic di-GMP [1] = variants of: B1; assay: normalized RNA/DNA level without ligand (relative to sTRSVctl = 100) (log10 (% of sTRSVctl)); HEK293T; ligand: cyclic di-GMP (c-di-GMP-II aptamer); higher = less ribozyme self-cleavage, higher mRNA level; conditions: reporter: mCherry (pCS4076), ligand present: no
Summary of the method: (§1)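 Total RNA, extracted with EDTA 72 h after HEK293T cells were transfected with 4 µg per 6-well well of reporter-linked ribozyme switch library plasmids, was reverse-transcribed, amplified, barcoded and sequenced. Ligand, if used, was added 1 h before transfection. RNA level was derived from RNA reads divided by DNA reads and normalized to a spiked-in non-cleaving sequence or to the top sequences. This was multiplied by 100 and log10-transformed, with the top set of 25 sequences and a ≥100 DNA read minimum.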

cyclic di-GMP [2] = variants of: B1; assay: normalized RNA/DNA level with ligand (relative to sTRSVctl = 100) (log10 (% of sTRSVctl)); HEK293T; ligand: cyclic di-GMP (c-di-GMP-II aptamer); ligand concentration (+) RNA-Seq: 1 mM; higher = less ribozyme self-cleavage, higher mRNA level; conditions: reporter: mCherry (pCS4076), ligand present: yes
Summary of the method: as §1

| Variant | normalized RNA/DNA level without ligand (log10) (cyclic di-GMP [1]) | normalized RNA/DNA level with ligand (log10) (cyclic di-GMP [2]) |
| --- | --- | --- |
| GCUGUCACCGAGAAACUGUGAAGUAUAUCUUAAACCUGGGCACUUAAAAGAUAUAUGGAGUUAGUAGUGCAACCUGCUCGGUCUGAUGAGUCCGAGUUCGGACGAAACAGC [GAGUUC] | 1.81 ± 0.069 | 1.9 ± 0.06 |
| GCUGUCACCGAGAAACUGUGAAGUAUAUCUUAAACCUGGGCACUUAAAAGAUAUAUGGAGUUAGUAGUGCAACCUGCUCGGUCUGAUGAGUCCGAGUUUGGACGAAACAGC [GAGUUU] | 1.79 ± 0.031 | 1.87 ± 0.11 |
| GCUGUCACCGAGAAACUGUGAAGUAUAUCUUAAACCUGGGCACUUAAAAGAUAUAUGGAGUUAGUAGUGCAACCUGCUCGGUCUGAUGAGUCCAAUAACGGACGAAACAGC [AAUAAC] | 1.634 ± 0.013 | 1.8 ± 0.092 |
| GCUGUCACCGAGAAACUGUGAAGUAUAUCUUAAACCUGGGCACUUAAAAGAUAUAUGGAGUUAGUAGUGCAACCUGCUCGGUCUGAUGAGUCCCAGUGCGGACGAAACAGC [CAGUGC] | 1.71 ± 0.05 | 1.81 ± 0.11 |
| GCUGUCACCGAGAAACUGUGAAGUAUAUCUUAAACCUGGGCACUUAAAAGAUAUAUGGAGUUAGUAGUGCAACCUGCUCGGUCUGAUGAGUCCCAGUGAGGACGAAACAGC [CAGUGA] | 1.52 ± 0.043 | 1.7 ± 0.12 |
| GCUGUCACCGAGAAACUGUGAAGUAUAUCUUAAACCUGGGCACUUAAAAGAUAUAUGGAGUUAGUAGUGCAACCUGCUCGGUCUGAUGAGUCCCAGUGUGGACGAAACAGC [CAGUGU] | 1.718 ± 0.0057 | 1.84 ± 0.12 |
| GCUGUCACCGAGAAACUGUGAAGUAUAUCUUAAACCUGGGCACUUAAAAGAUAUAUGGAGUUAGUAGUGCAACCUGCUCGGUCUGAUGAGUCCCAGUGGGGACGAAACAGC [CAGUGG] | 1.68 ± 0.022 | 1.86 ± 0.065 |
| GCUGUCACCGAGAAACUGUGAAGUAUAUCUUAAACCUGGGCACUUAAAAGAUAUAUGGAGUUAGUAGUGCAACCUGCUCGGUCUGAUGAGUCCAAGUUCGGACGAAACAGC [AAGUUC] | 1.6603 ± 0.0013 | 1.84 ± 0.11 |
| GCUGUCACCGAGAAACUGUGAAGUAUAUCUUAAACCUGGGCACUUAAAAGAUAUAUGGAGUUAGUAGUGCAACCUGCUCGGUCUGAUGAGUCCAAGUUGGGACGAAACAGC [AAGUUG] | 1.56 ± 0.072 | 1.75 ± 0.11 |
| GCUGUCACCGAGAAACUGUGAAGUAUAUCUUAAACCUGGGCACUUAAAAGAUAUAUGGAGUUAGUAGUGCAACCUGCUCGGUCUGAUGAGUCCAAGUUUGGACGAAACAGC [AAGUUU] | 1.724 ± 0.0032 | 1.88 ± 0.076 |
| GCUGUCACCGAGAAACUGUGAAGUAUAUCUUAAACCUGGGCACUUAAAAGAUAUAUGGAGUUAGUAGUGCAACCUGCUCGGUCUGAUGAGUCCCAGUUGGGACGAAACAGC [CAGUUG] | 1.76 ± 0.019 | 1.87 ± 0.11 |
| GCUGUCACCGAGAAACUGUGAAGUAUAUCUUAAACCUGGGCACUUAAAAGAUAUAUGGAGUUAGUAGUGCAACCUGCUCGGUCUGAUGAGUCCCAUAACGGACGAAACAGC [CAUAAC] | 1.62 ± 0.028 | 1.75 ± 0.1 |
| GCUGUCACCGAGAAACUGUGAAGUAUAUCUUAAACCUGGGCACUUAAAAGAUAUAUGGAGUUAGUAGUGCAACCUGCUCGGUCUGAUGAGUCCAAGUGUGGACGAAACAGC [AAGUGU] | 1.6 ± 0.034 | 1.76 ± 0.14 |
| GCUGUCACCGAGAAACUGUGAAGUAUAUCUUAAACCUGGGCACUUAAAAGAUAUAUGGAGUUAGUAGUGCAACCUGCUCGGUCUGAUGAGUCCAAGUGAGGACGAAACAGC [AAGUGA] | 1.38 ± 0.19 | 1.5546 ± 0.00035 |
| GCUGUCACCGAGAAACUGUGAAGUAUAUCUUAAACCUGGGCACUUAAAAGAUAUAUGGAGUUAGUAGUGCAACCUGCUCGGUCUGAUGAGUCCAAGUGGGGACGAAACAGC [AAGUGG] | 1.68 ± 0.033 | 1.78 ± 0.12 |
| GCUGUCACCGAGAAACUGUGAAGUAUAUCUUAAACCUGGGCACUUAAAAGAUAUAUGGAGUUAGUAGUGCAACCUGCUCGGUCUGAUGAGUCCAAGUGCGGACGAAACAGC [AAGUGC] | 1.666 ± 0.0039 | 1.82 ± 0.14 |
| GCUGUCACCGAGAAACUGUGAAGUAUAUCUUAAACCUGGGCACUUAAAAGAUAUAUGGAGUUAGUAGUGCAACCUGCUCGGUCUGAUGAGUCCUAGUCUGGACGAAACAGC [UAGUCU] | 1.707 ± 0.015 | 1.84 ± 0.053 |
| GCUGUCACCGAGAAACUGUGAAGUAUAUCUUAAACCUGGGCACUUAAAAGAUAUAUGGAGUUAGUAGUGCAACCUGCUCGGUCUGAUGAGUCCUAGUGCGGACGAAACAGC [UAGUGC] | 1.69 ± 0.024 | 1.82 ± 0.13 |
| GCUGUCACCGAGAAACUGUGAAGUAUAUCUUAAACCUGGGCACUUAAAAGAUAUAUGGAGUUAGUAGUGCAACCUGCUCGGUCUGAUGAGUCCUAGUGUGGACGAAACAGC [UAGUGU] | 1.62 ± 0.034 | 1.81 ± 0.13 |
| GCUGUCACCGAGAAACUGUGAAGUAUAUCUUAAACCUGGGCACUUAAAAGAUAUAUGGAGUUAGUAGUGCAACCUGCUCGGUCUGAUGAGUCCUAGUUCGGACGAAACAGC [UAGUUC] | 1.71 ± 0.031 | 1.89 ± 0.057 |
| GCUGUCACCGAGAAACUGUGAAGUAUAUCUUAAACCUGGGCACUUAAAAGAUAUAUGGAGUUAGUAGUGCAACCUGCUCGGUCUGAUGAGUCCUAGUUAGGACGAAACAGC [UAGUUA] | 1.67 ± 0.025 | 1.83 ± 0.13 |
| GCUGUCACCGAGAAACUGUGAAGUAUAUCUUAAACCUGGGCACUUAAAAGAUAUAUGGAGUUAGUAGUGCAACCUGCUCGGUCUGAUGAGUCCGAUAACGGACGAAACAGC [GAUAAC] | 1.675 ± 0.0073 | 1.85 ± 0.1 |
| GCUGUCACCGAGAAACUGUGAAGUAUAUCUUAAACCUGGGCACUUAAAAGAUAUAUGGAGUUAGUAGUGCAACCUGCUCGGUCUGAUGAGUCCGAGUGAGGACGAAACAGC [GAGUGA] | 1.71 ± 0.033 | 1.79 ± 0.14 |
| GCUGUCACCGAGAAACUGUGAAGUAUAUCUUAAACCUGGGCACUUAAAAGAUAUAUGGAGUUAGUAGUGCAACCUGCUCGGUCUGAUGAGUCCGAGUGGGGACGAAACAGC [GAGUGG] | 1.84 ± 0.043 | 1.9 ± 0.12 |
| GCUGUCACCGAGAAACUGUGAAGUAUAUCUUAAACCUGGGCACUUAAAAGAUAUAUGGAGUUAGUAGUGCAACCUGCUCGGUCUGAUGAGUCCGAGUGCGGACGAAACAGC [GAGUGC] | 1.785 ± 0.006 | 1.86 ± 0.13 |
| GCUGUCACCGAGAAACUGUGAAGUAUAUCUUAAACCUGGGCACUUAAAAGAUAUAUGGAGUUAGUAGUGCAACCUGCUCGGUCUGAUGAGUCCGAGUGUGGACGAAACAGC [GAGUGU] | 1.77 ± 0.049 | 1.89 ± 0.09 |

Source: the supplement of paper PMC6757056
